The results in this text go back to publication PMC10192527, “A metal ion-dependent mechanism of RAD51 nucleoprotein filament disassembly”.

Data set [1] addresses T1, RAD51 (Homo sapiens, UniProt Q06609 1-339). Put plainly: cryo-EM structure (3.8 A); Ca2+, ATP (pre-synaptic filament; two Ca2+ per ATP site); EMSA: 25 mM HEPES pH 7.5, 150 mM NaCl, 2 mM DTT, 5 mM CaCl2, 2 mM ATP or 0.5-10 mM ADP, 25 C 15 min; 0.5% agarose in 0.5x TB at 4 C. The following applies: protein: recombinant; tags: none stated on the final protein; co-expressed with His6-MBP-BRCA2 BRC4 (pMBP4-RAD51); chain copies: 10; single strand. (A gel shift assay detects complexes by their altered migration in electrophoresis.)

Data set [2] concerns the target T1, RAD51. Briefly: cryo-EM structure; ATP, Ca2+ (post-synaptic filament; second metal ion present); EMSA: 25 mM HEPES pH 7.5, 150 mM NaCl, 2 mM DTT, 5 mM CaCl2, 2 mM ATP or 0.5-10 mM ADP, 25 C 15 min; 0.5% agarose in 0.5x TB at 4 C. The following applies: protein: recombinant; tags: none stated on the final protein; co-expressed with His6-MBP-BRCA2 BRC4 (pMBP4-RAD51); chain copies: 16; blunt ends, internal 10-nt mismatched bubble.

T1 sequence (Q06609 whole entry): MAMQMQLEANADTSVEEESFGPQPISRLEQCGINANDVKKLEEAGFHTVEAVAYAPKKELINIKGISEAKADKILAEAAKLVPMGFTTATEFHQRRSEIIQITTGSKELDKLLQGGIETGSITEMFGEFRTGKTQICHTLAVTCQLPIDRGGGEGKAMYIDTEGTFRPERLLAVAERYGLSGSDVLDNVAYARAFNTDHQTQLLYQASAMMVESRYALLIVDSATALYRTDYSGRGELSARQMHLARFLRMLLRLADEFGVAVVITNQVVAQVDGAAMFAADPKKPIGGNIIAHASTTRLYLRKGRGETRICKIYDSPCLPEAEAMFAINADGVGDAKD

B1: x60 ssDNA 60mer (ssDNA)
DNA: ATGGTGTGTGTAGGTTAATGTGAGGAGGAGAGGTGAAGAAGGAGGAGAGAAGAAGGAGGC
On to B1, for which, in the data set with RAD51 [1], the binding result is listed as “binds”.

B2: R51-14:R51-15 (post-synaptic filament DNA) (dsDNA)
DNA 1: TGGAGGTGCATCGAGCTCGCGACAAACCTTCTATGTTGAGCGTCAGTCGG
DNA 2: CCGACTGACGCTCAACATAGGTACCACACGGCGAGCTCGATGCACCTCCA
In the case of B2, the binding result with RAD51 [2] is “binds”.
